From article PMC4234509 come the findings set out here.

In experiment [1] the target is EvpP (E. tarda virulent protein P), wild type, 6x His-tagged (Edwardsiella tarda PPD130/91). In words: dynamic light scattering; 50 µM protein, 20°C, DynaPro; 11 readings.
Experiment [2] has the same target. Put plainly: cross-linking; glutaraldehyde, room temperature, different time periods, SDS-PAGE.
Experiment [3] has the same target. In words: SEC; Superdex 75 HiLoad 16/60; EvpP eluted at ~72 ml, standards ovalbumin (44 kDa) at 63 ml and myoglobulin (17 kDa) at 83 ml.
The target of experiment [4] is trypsin-digested EvpP (associated 10-kDa and 4-kDa fragments) (Edwardsiella tarda PPD130/91). In words: SEC; EvpP after limited trypsin digestion (protein:trypsin 100:1), HiLoad 16/60 Superdex 75.

Regarding “EvpP (E. tarda virulent protein P), wild type, 6x His-tagged (natural protein)”, the stoichiometry N in experiment [1], in experiment [2] and in experiment [3] was 2 throughout.

On to “trypsin-digested EvpP (associated 10-kDa and 4-kDa fragments) (complex)”, for which, in experiment [4], the stoichiometry N is 2.

By stoichiometry N is commonly meant a count of units in the complex or per binding partner.
